Assay [1] has as its target T1, SARS-CoV-2 S protein ectodomain trimer (residues 1-1211, foldon trimerization motif, 6xHis tag, AviT (SARS-CoV-2; bacteriophage T4, UniProt P0DTC2 14-1211; P10104 458-484). Nature of the assay: ELISA on biotinylated S protein trimer captured with immobilized streptavidin. Background: ELISA stands for enzyme-linked immunosorbent assay.
Assay [2] deals with T1, SARS-CoV-2 S protein ectodomain trimer ….
The target is the same in assay [3]. Description: BLI on immobilized S protein.
For assay [4] the target is unchanged. Description: BLI on immobilized S protein ECD.

B1: IgG 15031 (antibody, V domains shown)
VH: EVQLVESGGGLVQPGGSLRLSCAASGFDLTGSYMHWVRQAPGKGLEWVAGISASGGATAYADSVKGRFTISADTSKNTAYLQMNSLRAEDTAVYYCARSRSSSYSSSGWRYYSGAFDYWGQGTLVTVSS
VL: DIQMTQSPSSLSASVGDRVTITCRASQSVSSAVAWYQQKPGKAPKLLIYSASDLYSGVPSRFSGSRSGTDFTLTISSLQPEDFATYYCQQGSYLFTFGQGTKVEIKR
As to B1, the binding result in assay [1] was “binds”.

B2: peptide-IgG 33^LR1 (peptide p102 fused to the N-terminus of the light chain of IgG 15033) (antibody)
heavy: not shown
light: ECWEWSYQLQEWSPCPGGGGSGGGGSGGGGSGGGGSDIQMTQSPSSLSASVGDRVTITCRASQSVSSAVAWYQQKPGKAPKLLIYSASDLYSGVPSRFSGSRSGTDFTLTISSLQPEDFATYYCQQSYRYPITFGQGTKVEIKRTVAAPSVFIFPPSDEQLKSGTASVVCLLNNFYPREAKVQWKVDNALQSGNSQESVTEQDSKDSTYSLSSTLTLSKADYEKHKVYACEVTHQGLSSPVTKSFNRGEC
Turning to B2, in assay [2], the Kd (usually the concentration at which binding is half-saturated) worked out at 6.1 pM; the koff (in general, the rate constant with which the complex falls apart) was 2.2e-06 s⁻¹; the kon (usually the second-order rate constant of association) worked out at 350000 M⁻¹ s⁻¹.

B3: 15031 Fab-IgG (tetravalent) (antibody)
heavy: not shown
light: DIQMTQSPSSLSASVGDRVTITCRASQSVSSAVAWYQQKPGKAPKLLIYSASDLYSGVPSRFSGSRSGTDFTLTISSLQPEDFATYYCQQGSYLFTFGQGTKVEIKRTVAAPSVFIFPPSDEQLKSGTASVVCLLNNFYPREAKVQWKVDNALQSGNSQESVTEQDSKDSTYSLSSTLTLSKADYEKHKVYACEVTHQGLSSPVTKSFNRGEC
With B3, the binding result in assay [3] is given as “binds”.

B4: 15031 IgG-Fab (tetravalent) (antibody)
heavy: not shown
light: B3 light
Take B4: the binding result in assay [3] was “binds”.

B5: peptide-IgG 33^LN1 (peptide p16 fused to the N-terminus of the light chain of IgG 15033) (antibody)
heavy: not shown
light: DFDFAENWMEQLKVMLGGGGSGGGGSGGGGSGGGGSDIQMTQSPSSLSASVGDRVTITCRASQSVSSAVAWYQQKPGKAPKLLIYSASDLYSGVPSRFSGSRSGTDFTLTISSLQPEDFATYYCQQSYRYPITFGQGTKVEIKRTVAAPSVFIFPPSDEQLKSGTASVVCLLNNFYPREAKVQWKVDNALQSGNSQESVTEQDSKDSTYSLSSTLTLSKADYEKHKVYACEVTHQGLSSPVTKSFNRGEC
Turning to B5, in assay [4], the “fold improvement of apparent KD relative to IgG 15033” value was over 100 fold. In assay [2], this molecule returned a Kd of under 1 pM, an off-rate (koff) of under 1e-07 s⁻¹ and a kon of 1.1e+06 M⁻¹ s⁻¹.

B6: peptide-IgG 33^HN1 (peptide p16 fused to the N-terminus of the heavy chain of IgG 15033) (antibody)
heavy: not shown
light: DIQMTQSPSSLSASVGDRVTITCRASQSVSSAVAWYQQKPGKAPKLLIYSASDLYSGVPSRFSGSRSGTDFTLTISSLQPEDFATYYCQQSYRYPITFGQGTKVEIKRTVAAPSVFIFPPSDEQLKSGTASVVCLLNNFYPREAKVQWKVDNALQSGNSQESVTEQDSKDSTYSLSSTLTLSKADYEKHKVYACEVTHQGLSSPVTKSFNRGEC
In assay [2], B6 came in with a Kd of 24 pM, a dissociation rate constant (koff) of 3.8e-05 s⁻¹ and a kon of 1.6e+06 M⁻¹ s⁻¹.

B7: peptide-IgG 33^HR1 (peptide p102 fused to the N-terminus of the heavy chain of IgG 15033) (antibody)
heavy: not shown
light: B6 light
As to B7, the “fold improvement of apparent KD relative to IgG 15033” value in assay [4] was over 100 fold. In assay [2], this molecule showed a Kd of under 1 pM, a koff of under 1e-07 s⁻¹ and a kon of 1.2e+06 M⁻¹ s⁻¹.
